The target of assay [1] is T1, human CCR8 (human, UniProt P51685 1-355). In words: cell-based or functional assay.
Assay [2] addresses T1, human CCR8. In words: FACS as in Example 2; T0 (the reference itself).
The target of assay [3] is T1, human CCR8. Description: FACS on human CCR8-expressing 293F cells.
For assay [4], the target named is T1, human CCR8. Description: FACS as in Example 2; antibody after Freeze/thaw 5FT; ratio to T0.
Assay [5] deals with T1, human CCR8. Description: cell-based or functional assay. The source holds these as a separate data set.
The target in assay [6] is T1, human CCR8. In words: FACS as in Example 2; antibody after Oxidation 24 h; ratio to T0.
For assay [7], the target named is T1, human CCR8. Description: FACS as in Example 2; antibody after 40° C. 2 W; ratio to T0.
The target of assay [8] is T1, human CCR8. In words: FACS as in Example 2; antibody after 40° C. 1 W; ratio to T0.
Assay [9] has as its target T1, human CCR8. Description: FACS as in Example 2; antibody after 40° C. 4 W; ratio to T0.
Assay [10] has as its target T1, human CCR8. In words: FACS on human CCR8-expressing 293F cells. This is another data set of the same source.
In assay [11] the target is T1, human CCR8. In words: binding affinity EC50, comparison of Table 12 (FACS on CCR8-expressing cells).

T1 sequence (P51685 whole entry): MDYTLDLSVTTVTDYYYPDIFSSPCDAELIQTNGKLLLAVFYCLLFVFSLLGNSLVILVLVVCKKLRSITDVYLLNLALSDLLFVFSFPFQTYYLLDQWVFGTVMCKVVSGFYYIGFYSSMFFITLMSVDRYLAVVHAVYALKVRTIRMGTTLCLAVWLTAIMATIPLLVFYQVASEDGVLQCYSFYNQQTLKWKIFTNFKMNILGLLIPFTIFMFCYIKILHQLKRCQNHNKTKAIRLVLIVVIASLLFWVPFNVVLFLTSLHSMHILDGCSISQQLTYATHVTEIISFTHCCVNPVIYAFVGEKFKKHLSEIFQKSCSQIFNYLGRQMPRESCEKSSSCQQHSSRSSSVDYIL

B1: 1G17hz3 (antibody, V domains shown)
VH: QVQLVQSGAEVKKPGASVKVSCKASGYTFADYEMHWVRQAPGQGLEWMGAIDPETGRTAYAQKFQGRVTMTADRSTSTAYMELSSLRSEDTAVYYCTRRAYWGGWGQGTLVTVSS
VL: DVVMTQSPLSLPVTLGQPASISCRSSQSLVHSSGNTYLHWYQQRPGQSPRLLIYKVSNRFSGVPDRFSGSGSGTDFTLKISRVEAEDVGVYFCSQSTHVPYTFGQGTKLEIK
notes: Humanized variant of 1G17
Regarding B1, in assay [1], the “Calcium mobilization IC50 (nM) Ratio; 40° C. 1 W” value stood at 3.07, the “Calcium mobilization IC50 (nM) Ratio; 40° C. 2 W” value is 1.38, the “Calcium mobilization IC50 (nM) Ratio; 40° C. 4 W” value was 2.35 and the “Calcium mobilization IC50 (nM) Ratio; Freeze/thaw 5FT” value is 0.32. In addition, in assay [1], the “Calcium mobilization IC50 (nM) Ratio; Oxidation 24 h” value turned out to be 1.14 and the “Calcium mobilization IC50 (nM) Ratio; T0” value came to 1. In assay [2], the “Affinity EC50 (nM) Ratio” value turned out to be 1. Further, the EC50 (in general, the concentration giving half of the maximal effect) in assay [3] turned out to be 0.47 nM. Besides, in assay [4], the “Affinity EC50 (nM) Ratio” value was found to be 2.43. The “Calcium mobilization IC50” value in [5] amounted to 25.3 nM. The “Affinity EC50 (nM) Ratio” value in assay [6] is 1.71. The “Affinity EC50 (nM) Ratio” value in [7] worked out at 1.31. Moreover, the “Affinity EC50 (nM) Ratio” value in [8] was 0.91. Also, the “Affinity EC50 (nM) Ratio” value in [9] is 1.1.

B2: 3F11hz1 (antibody, V domains shown)
VH: EVQLVESGGGLVQPGGSLKLSCAASGFSFNTYAMHWVRQASGKGLEWVGRIRSKSNYYATYYAASVKGRFTISRDDSKNTAYLQMNSLKTEDTAVYYCTRGRELGDYYAMDYWGQGTLVTVSS
VL: DIVMTQSPLSLPVTPGEPASISCRSSKSLLHSNGNTYLDWYLQKPGQSPQLLIYRMSNRASGVPDRFSGSGSGTDFTLKISRVEAEDVGVYYCMQHLEYPFTFGQGTKLEIK
notes: Humanized variant of 3F11
B2: the binding result in assay [10] was “binds”.

B3: 3F11hz3 (antibody, V domains shown)
VH: EVQLVESGGGLVQPGGSLKLSCAASGFTFSTYAMNWVRQASGKGLEWVGRIRSKSNYYATYYADSVKDRFTISRDDSKNTAYLQMNSLKTEDTAVYYCVRGRELGDYYAMDYWGQGTLVTVSS
VL: DIVMTQSPLSLPVTPGEPASISCRSSKSLLHSNGNTYLDWFLQKPGQSPQLLIYRMSNLASGVPDRFSGSGSGTDFTLKISRVEAEDVGVYYCMQHLEYPFTFGQGTKLEIK
notes: Humanized variant of 3F11
Take B3: in assay [10], the binding result is “binds”.

B4: 3O20hz2 (antibody, V domains shown)
VH: EVQLVESGGGLVQPGGSLKLSCATSGFSFNAYAMNWVRQASGKGLEWVGRIRSKSNNYATYYAASVKGRFTISRDDSKTTLYLQMNSLKTEDTAVYYCVRGGYHGNSAYFDVWGQGTLVTVSS
VL: DIVMTQSPLSLPVTPGEPASISCRSSKSLLHSNGNTYLYWFLQKPGQSPQLLIYRMSNLASGVPDRFSGSGSGTDFTLKISRVEAEDVGVYYCLQHLEYPFTFGQGTKLEIK
notes: Humanized variant of 3O20
Regarding B4, in assay [1], the “Calcium mobilization IC50 (nM) Ratio; 40° C. 1 W” value turned out to be 3.02, the “Calcium mobilization IC50 (nM) Ratio; 40° C. 2 W” value turned out to be 0.98, the “Calcium mobilization IC50 (nM) Ratio; 40° C. 4 W” value amounted to 1.86 and the “Calcium mobilization IC50 (nM) Ratio; Freeze/thaw 5FT” value was 1.37. Further, in [1], the “Calcium mobilization IC50 (nM) Ratio; Oxidation 24 h” value is 1.42 and the “Calcium mobilization IC50 (nM) Ratio; T0” value was 1. Further, in assay [2], the “Affinity EC50 (nM) Ratio” value was determined as 1. The molecule further had an EC50 in assay [3] of 0.135 nM. In assay [4], the “Affinity EC50 (nM) Ratio” value was found to be 1.22. Moreover, the “Calcium mobilization IC50” value in assay [5] turned out to be 7.39 nM. The “Affinity EC50 (nM) Ratio” value in assay [6] turned out to be 2.13. For the same molecule, in assay [7], the “Affinity EC50 (nM) Ratio” value is 1.14. Moreover, the “Affinity EC50 (nM) Ratio” value in [8] came out at 0.79. The “Affinity EC50 (nM) Ratio” value in assay [9] was 1.65.

B5: 3F11hz5 (antibody, V domains shown)
VH: EVQLVESGGGLVQPGGSLKLSCAASGFSFNTYAMNWVRQASGKGLEWVGRIRSKSNYYATYYAASVKGRFTISRDDSKNTAYLQMNSLKTEDTAVYYCVRGRELGDYYAMDYWGQGTLVTVSS
VL: DIVMTQSPLSLPVTPGEPASISCRSSKSLLHSNGNTYLEWYLQKPGQSPQLLIYRMSNRASGVPDRFSGSGSGTDFTLKISRVEAEDVGVYYCMQHLEYPFTFGQGTKLEIK
notes: Humanized variant of 3F11
With B5, the binding result in assay [10] is given as “binds”.

B6: 3F11hz6 (antibody, V domains shown)
VH: EVQLVESGGGLVQPGGSLKLSCAASGFSFNTYAMNWVRQASGKGLEWVGRIRSKSNYYATYYAASVKGRFTISRDDSKNTAYLQMNSLKTEDTAVYYCVRGRELGDYYAMDYWGQGTLVTVSS
VL: DIVMTQSPLSLPVTPGEPASISCRSSKSLLHSSGNTYLDWFLQKPGQSPQLLIYRMSNRASGVPDRFSGSGSGTDFTLKISRVEAEDVGVYYCMQHLEYPFTFGQGTKLEIK
notes: Humanized variant of 3F11
For B6, the binding result in [10] is on record as “binds”.

B7: TPP-23411 (antibody, V domains shown)
VH: EVQLLESGGGLVQPGGSLRLSCAASGFTFSSYGMHWVRQAPGKGLEWVSAINWNGGSTGYADSVKGRFTISRDNSKNTLYLQMNSLRAEDTAVYYCARGHHSGYDGRFFDYWGQGTLVTVSS
VL: QSVLTQPPSVSGAPGQRVTISCTGSSSNIGAGYNVHWYQQLPGTAPKLLIYTNNRRPSGVPDRFSGSKSGTSASLAISGLRSEDEADYYCAAWDASLSGWVFGGGTKLTVLG
Consider B7, for which a half-maximal response in [11] (EC50) required 0.65 nM.
